Test results from the supplement of paper PMC10567573.

B1: WDR41 (parent)
chain: WTMQAYERNFWDPSPQLDTQQEIK
B2: GOLPH3 (parent)
chain: FAPLLDEQYDLATKRVRQLLDLDP

Variants of: B1
Assay: protein stability index of a GFP-peptide fusion (GPS, HEK-293T) (PSI 1-6); higher = more stable
Conditions: c terminus: a fixed tail appended
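Further: lentivirally expressed fusions sorted by FACS into six bins by GFP to DsRed ratio, PSI derived from sequencing read proportions per bin multiplied by bin number.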

Protein stability index of substitutions, site by site:
P13: V 2.04; A 2.11; D 3.07; F 1.82; H 2.33; G 2.1; N 2.29; M 2.34; T 1.56
A5: K 2.96; M 2.71; F 1.91; G 3.53; R 3.25; Q 2.85; V 2.12; E 3.65
T2: A 2.01; Y 2.16; S 2; P 3.82; W 2.15; H 1.89; C 2.15
K24: R 2.58; L 1.76; V 2.17; G 2.29; A 2.47; H 2.29; C 2.19; I 1.98; S 2.59; D 2.83; Y 2.46; E 3.06
N9: H 1.6; C 1.94; T 2.52; M 1.45; S 2.46; A 2.08; W 1.59; F 2.12; I 2.04
D12: L 3.49; Q 1.37; K 2.06; C 2.25; Y 1.4; E 2.31; G 1.96; I 2.15; M 2.93
E7: W 2.39; R 2.86; P 2.79; N 3.04; L 3.28; M 1.93; Y 2.26
W11: R 4.47; Q 3.93; M 3.58; D 4.47; H 4.04; I 3.91; K 4.75; P 3.97
D18: P 2.24; N 2.17; R 2.02; L 2.63; E 2.7; M 2.19; Q 2.34; I 2.28; W 1.83; G 2.56
Y6: M 3.17; S 2.78; N 2.93; C 2.87; I 2.67; T 2.83; R 3.58; H 1.92; Q 2.83
S14: D 3.26; E 3.22; C 2.59; W 2.07
Q16: K 2.42; S 1.82; P 2.4; N 2.2; T 2.67; D 2.65; G 2.83; M 1.46; Y 1.68; H 2.01; V 2.03; F 2.5
E22: A 2.45; N 2.41; P 2.34; K 2.37; S 2.96; I 2.81; D 1.85; W 1.88; M 2.03; Q 2.1; R 2.15
R8: Y 2.52; Q 3.26; H 3.01; W 2.4; N 3.41; V 2.57; D 3.9; G 2.59
L17: R 3.23; M 3.2; S 2.68; Y 2.49; T 2.31; Q 3.18; G 3.22; D 3.56; C 2.58; V 2.75; W 2.37; I 2.25; A 2.6; P 2.9
F10: L 3.95; V 3.68; G 3.25; T 3.89; Y 3.38; I 3.58; A 3.23; D 4.7; M 4.03; C 3.52; Q 4.61; W 2.77
Q4: P 3.21; L 2.35; W 1.72; F 2.38; V 2.25; R 1.8; M 2.92
M3: S 1.79; E 3.89; G 2.46; A 2.44; L 2.69; C 1.97; Q 3.07; N 2.34; W 2.77
I23: C 2.11; M 2.18; K 3.93; P 2.97; D 3.61; N 3.24; G 3.05; V 2.02; W 2.12; S 3.27
W1: F 2.44; N 4.46; T 4.25; Y 3.58; Q 4.81; D 5.58; S 4.51; V 3.47; K 4.15; M 3.77; G 4.73; P 4.6
Q20: M 2.27; S 2.07; Y 2.07; D 3.42; F 1.99; H 2.86; I 2.07; N 2.88; K 2.28; T 2.04; E 2.35
T19: L 2.5; W 2.22; R 2.05; Q 2.55; S 2.91; N 2.96; F 1.55; H 2.74
Q21: L 1.92; I 1.73; P 2.66; G 2.62; H 1.99; T 2.5; K 2.28; M 2.93; C 2.12; S 3.13; Y 2.61; W 1.6; V 2.51; R 2.84
P15: N 2.6; Q 2.08; I 2.15; S 2.02; M 2.7; W 1.75; T 3.12; K 2.43

Variants of: B2
Assay: as above
Conditions: c terminus: a fixed tail appended

Protein stability index of substitutions, site by site:
L11: Y 2.51; H 2.73; K 2.56; I 2.36
T13: M 1.89; K 2.32; G 3.19; Q 1.84; Y 1.28; P 2.22
P3: L 1.6; N 3.18; G 2.59; C 2.44; M 1.78
L5: W 2.07
A2: C 1.85; V 2.11; T 2.71; F 2.03; Y 2.43; G 3.19; I 1.75; P 3.45
D6: H 1.48; M 2.25; V 1.75; Q 1.42; G 1.45
L4: N 3.2; F 2.01; D 3.39; R 1.43; H 2.31; V 3.17
Q18: I 2.34; E 2.06; N 2.2; D 2.43; V 2.99; F 2.67
A12: I 1.43
P24: D 1.87; W 1.29; R 2.28
D10: S 2.03; H 1.58
R15: H 2.04; C 2.1; N 2.3
D21: A 1.47; N 2.12; Q 2.1; Y 1.88; L 2.1; F 3.68
L20: V 1.94; Y 1.94; C 2.27; K 2.59; D 2.34; W 2.11
L19: V 2.33; M 1.78; S 2.21; P 2.65; A 2.7
E7: N 1.91; M 1.9; P 2.12; S 2.12; H 1.76
F1: M 3.58; W 2.46; D 4.39; C 2.5
Y9: R 2.2; V 1.24
L22: C 1.95; E 3.16; H 2.55; K 2.27
D23: Q 2.11; R 2.72; C 2.41; N 2.85
Q8: K 1.75; P 1.74
V16: T 2.59; H 1.65; K 1.54; L 1.51; M 1.96; Y 2.58; C 2.09
K14: Q 1.88; T 2.11; C 2.29
R17: T 2.11; A 2.37; L 2.13; P 2.45; F 1.93; H 1.87; Y 1.74; M 2.27
